Assay results from patent US20230144192A1 (Sanofi, published 2023).

Molecular target: FcRn (UniProt P55899 24-297; P61769 21-119, limits assumed)
Assay: method not described; PBPK model input at pH 6.0, source given as 'Unpublished data'

- Kd: 1.4 µM
B1: Ab1 (antibody, human IgG4 S228P, kappa)
heavy: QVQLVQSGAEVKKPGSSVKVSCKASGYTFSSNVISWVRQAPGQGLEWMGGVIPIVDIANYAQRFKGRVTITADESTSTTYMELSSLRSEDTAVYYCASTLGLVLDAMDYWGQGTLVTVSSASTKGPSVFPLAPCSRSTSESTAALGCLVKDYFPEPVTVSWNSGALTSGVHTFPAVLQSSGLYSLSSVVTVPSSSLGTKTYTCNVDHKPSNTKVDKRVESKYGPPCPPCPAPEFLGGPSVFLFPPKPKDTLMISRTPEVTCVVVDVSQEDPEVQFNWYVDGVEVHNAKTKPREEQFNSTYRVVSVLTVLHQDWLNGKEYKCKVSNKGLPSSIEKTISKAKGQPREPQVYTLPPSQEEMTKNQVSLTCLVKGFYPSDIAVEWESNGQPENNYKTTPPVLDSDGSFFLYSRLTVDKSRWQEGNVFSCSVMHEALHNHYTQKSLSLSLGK
light: ETVLTQSPGTLSLSPGERATLSCRASQSLGSSYLAWYQQKPGQAPRLLIYGASSRAPGIPDRFSGSGSGTDFTLTISRLEPEDFAVYYCQQYADSPITFGQGTRLEIKRTVAAPSVFIFPPSDEQLKSGTASVVCLLNNFYPREAKVQWKVDNALQSGNSQESVTEQDSKDSTYSLSSTLTLSKADYEKHKVYACEVTHQGLSSPVTKSFNRGEC
notes: Human IgG4 (S228P, Eu numbering) / kappa anti-TGF-beta antibody; also called GC2008; copies: 2 + 2
